Experimental data: patent US20200002421A1 (AbbVie / Abbott, published 2020)
Substitutions are numbered along the chain they refer to.

What was measured:
[1] = molecular target: T1, Cynomolgous B7-H3 on cells (cynomolgus); test: FACS
T1 construct: whole, on cells; also called cyno B7-H3; cyB7-H3
Procedure: (§1) Cells were harvested from flasks when approximately 80% confluent using Gibco® Cell Dissociation Buffer. Cells were washed once in PBS/1% FBS (FACS buffer) then resuspended at 2.5×10⁶ cells/mL in FACS buffer. 100 μL of cells/well were added to a round bottom 96-well plate. 10 μL of a 10× concentration of mAb/ADC (final concentrations are indicated the figures). Wells were washed twice with FACS buffer and resuspended in 50 μL of secondary Ab (AlexaFluor 488) diluted in FACS buffer. The plate was incubated at 4° C. for one hour and washed twice with FACS buffer. Cells were resuspended in 100 μL of PBS/1% formaldehyde and analyzed on a Becton Dickinson LSRII flow cytometer. Data was analyzed using WinList flow cytometry analysis software.
(§2) Nine huAb13 variants described in Examples 17 and 18 were generated and tested for binding to B7-H3 by FACS (according to methods described in Example 6).

Human full length B7-H3 = molecular target: T2, Human full length B7-H3 (human, UniProt Q5ZPR3 29-534); test: FACS
T2 construct: on 3T12 transfectants, NCI-H1650 and other cells; also called huB7-H3; hu B7-H3
T2 sequence: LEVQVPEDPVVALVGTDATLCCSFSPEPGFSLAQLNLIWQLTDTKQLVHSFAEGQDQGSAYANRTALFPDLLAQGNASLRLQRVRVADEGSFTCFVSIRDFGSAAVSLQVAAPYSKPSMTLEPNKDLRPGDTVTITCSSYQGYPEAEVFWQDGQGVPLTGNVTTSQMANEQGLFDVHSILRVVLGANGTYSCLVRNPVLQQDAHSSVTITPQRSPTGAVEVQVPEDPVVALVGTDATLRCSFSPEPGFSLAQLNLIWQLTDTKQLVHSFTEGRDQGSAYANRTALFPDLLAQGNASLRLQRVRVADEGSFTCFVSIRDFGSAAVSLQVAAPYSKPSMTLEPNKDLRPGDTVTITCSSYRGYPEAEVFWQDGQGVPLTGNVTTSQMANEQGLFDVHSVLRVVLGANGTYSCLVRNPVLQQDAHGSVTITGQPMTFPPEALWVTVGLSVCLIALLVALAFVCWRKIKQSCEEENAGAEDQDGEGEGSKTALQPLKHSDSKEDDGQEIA
Procedure: as §1, §2

[2] = molecular target: T3, hB7-H3 (ELISA antigen of Tables 17 and 20) (human, UniProt Q5ZPR3 29-466, limits assumed); test: ELISA; ELISA, human B7-H3; no DAR given, so unconjugated
T3 sequence: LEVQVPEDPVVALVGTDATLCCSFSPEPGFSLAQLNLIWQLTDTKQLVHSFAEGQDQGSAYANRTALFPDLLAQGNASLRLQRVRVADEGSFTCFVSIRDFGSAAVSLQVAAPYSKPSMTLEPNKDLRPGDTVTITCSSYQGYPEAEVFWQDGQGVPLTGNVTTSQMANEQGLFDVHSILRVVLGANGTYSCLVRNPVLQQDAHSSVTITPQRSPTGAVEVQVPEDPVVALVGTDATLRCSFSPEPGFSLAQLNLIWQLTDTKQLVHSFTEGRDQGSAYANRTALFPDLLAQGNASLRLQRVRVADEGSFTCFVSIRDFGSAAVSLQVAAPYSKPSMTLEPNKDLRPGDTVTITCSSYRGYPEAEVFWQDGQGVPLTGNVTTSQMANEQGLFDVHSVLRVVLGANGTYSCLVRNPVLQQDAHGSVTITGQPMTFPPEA

[3] = molecular target: T3, hB7-H3 (ELISA antigen of Tables 17 and …); test: ELISA

B1: chAb13 (antibody, IgG1, V domains shown)
VH: DVQLQESGPDLVKPSQSLSLTCTVTGYSITSGYSWHWIRQFPGNKLEWMGYIHSSGSTNYNPSLKSRISINRDTSKNQFFLQLNSVTTEDTATYYCAGYDDYFEYWGQGTTLTVSS
VL: DIVMTQSQKFMSTSVGDRVSVTCKASQNVGFNVAWYQQKPGQSPKALIYSASYRYSGVPDRFTGSGSGTDFTLTISNVQSEDLAEYFCQQYNSYPFTFGSGTKLEIK
notes: chimeric, huIgG1/k
- EC50 [1]: 18.4 nM
- EC50 (Human full length B7-H3): 6.27 nM
- EC50 [2]: 0.26 nM

B2: huAb13v1 (antibody, human IgG1, kappa, L234A L235A, V domains shown)
VH: EVQLQESGPGLVKPSETLSLTCAVTGYSITSGYSWHWIRQFPGNGLEWMGYIHSSGSTNYNPSLKSRISISRDTSKNQFFLKLSSVTAADTAVYYCAGYDDYFEYWGQGTTVTVSS
VL: DIQMTQSPSSLSASVGDRVTITCKASQNVGFNVAWYQQKPGKSPKALIYSASYRYSGVPSRFSGSGSGTDFTLTISSLQPEDFAEYFCQQYNWYPFTFGQGTKLEIKR
notes: Ig gamma-1 mutant / kappa
- EC50 [1]: 10 nM

B3: huAb13v5 (antibody, V domains shown)
VH: B2 VH
VL: DIQMTQSPSSLSASVGDRVTITCKASQNVGFNVAWYQQKPGKAPKLLIYSASYRYSGVPSRFSGSGSGTDFTLTISSLQPEDFATYYCQQYNWYPFTFGQGTKLEIK
- EC50 [3]: 0.19 nM
- EC50 [1]: 10.6 nM
- EC50 (Human full length B7-H3): 5.21 nM

B4: huAb13v6 (antibody, V domains shown)
VH: B2 VH
VL: B3 VL with Y87F
- EC50 [3]: 0.14 nM
- EC50 [1]: 12.9 nM
- EC50 (Human full length B7-H3): 5.83 nM
